Measurements as given in US20050244400A1.

What was measured:
[1] = target: GAA Δ 817-952 (human GAA lacking C-terminal residues 817-952) (human) (UniProt P10253); assay: cell-based or functional assay
[2] = target: GAAΔ791-952-GILTΔ1-7 (GAA truncated with the GILT tag fused at position 791) (human) (UniProt P10253); assay: cell-based or functional assay

| Substance | GAA activity (nmol/hr-ml) in media of co-transfected HEK293 cells [1] [nmol/h/mL] | GAA activity (nmol/hr-ml) in media of co-transfected HEK293 cells [2] [nmol/h/mL] |
| --- | --- | --- |
| SS-GAA-791-952 (human IGF-II signal sequence fused to human GAA residues 791-952, the C-terminal domain) (from UniProt P10253 791-952) (enzyme) | 14 | 2 |
| SS-GAA-817-952 (from UniProt P10253 817-952) (enzyme) |  | 1 |
